From paper PMC7104187

Target: T1, SauCas9 (Staphylococcus aureus, UniProt J7RUA5 1-1053)
T1 sequence: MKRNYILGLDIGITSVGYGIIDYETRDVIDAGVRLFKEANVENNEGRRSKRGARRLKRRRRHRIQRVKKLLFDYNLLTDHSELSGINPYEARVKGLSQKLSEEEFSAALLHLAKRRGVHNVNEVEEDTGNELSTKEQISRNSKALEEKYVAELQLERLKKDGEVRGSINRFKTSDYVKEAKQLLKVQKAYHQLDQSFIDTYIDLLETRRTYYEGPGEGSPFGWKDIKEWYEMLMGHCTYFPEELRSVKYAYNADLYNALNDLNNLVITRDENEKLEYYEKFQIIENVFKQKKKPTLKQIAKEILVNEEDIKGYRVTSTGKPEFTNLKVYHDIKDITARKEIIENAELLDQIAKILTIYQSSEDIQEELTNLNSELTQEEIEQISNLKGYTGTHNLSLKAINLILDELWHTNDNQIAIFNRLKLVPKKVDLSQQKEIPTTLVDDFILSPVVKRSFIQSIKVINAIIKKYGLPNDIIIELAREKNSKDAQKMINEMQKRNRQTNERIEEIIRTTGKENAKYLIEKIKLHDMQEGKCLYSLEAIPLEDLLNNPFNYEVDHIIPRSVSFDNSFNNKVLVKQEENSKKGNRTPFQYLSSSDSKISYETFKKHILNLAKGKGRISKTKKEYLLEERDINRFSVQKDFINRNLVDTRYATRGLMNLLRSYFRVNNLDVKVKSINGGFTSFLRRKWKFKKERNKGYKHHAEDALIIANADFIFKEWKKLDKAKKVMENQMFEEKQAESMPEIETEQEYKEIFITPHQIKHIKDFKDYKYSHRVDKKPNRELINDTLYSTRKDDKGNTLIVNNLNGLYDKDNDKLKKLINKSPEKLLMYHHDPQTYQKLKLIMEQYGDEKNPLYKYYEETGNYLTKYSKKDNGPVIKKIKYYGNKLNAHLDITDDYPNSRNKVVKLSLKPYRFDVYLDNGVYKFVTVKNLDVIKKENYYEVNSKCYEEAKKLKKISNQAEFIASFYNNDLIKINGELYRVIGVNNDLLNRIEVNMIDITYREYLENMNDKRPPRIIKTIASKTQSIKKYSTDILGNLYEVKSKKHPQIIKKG
Assay: EMSA

B1: EGFP sgRNA + target dsDNA (T) (mixed)
RNA: GCAAGGGCGAGGAGCUGUUCACGUUUUAGUACUCUGGAAACAGAAUCUACUAAAACAAGGCAAAAUGCCGUGUUUAUCUCGUCAACUUGUUGGCGAGAUUUUU
DNA 1: TGGTGAGCAAGGGCGAGGAGCTGTTCACCGGGGT
DNA 2: ACCCCGGTGAACAGCTCCTCGCCCTTGCTCACCA
  binding result: binds
